Experimental data from US20240200085A1 (AARHUS UNIVERSITET, published 2024).

Target: T1, GFP-tagged NFR5 (LjNFR5-sfGFP) (Lotus japonicus)
T1 construct: Full-length receptor with C-terminal sfGFP; In the co-IP it was expressed from pLjUbi in N. benthamiana leaves and extracted with detergent; In nodulation assays it was expressed from the native Nfr5 promoter in roots; also called NFR5-GFP
Assay: co-immunoprecipitation (RFP-Trap) from N. benthamiana leaf extracts, anti-GFP and anti-mCherry immunoblot (FIG. 1J)
Experimental: The assay was performed as in Arora et al. (The Plant Cell 34, 7, 2806 (2022)). In short, N. benthamiana leaves were crushed to a powder in liquid nitrogen using a mortar and pestle, then incubated for 1 hour at 4° C. on a rotor in buffer containing 50 mM Tris-HCl (pH 7.5), 150 mM NaCl, 10% (v/v) glycerol, 2 mM EDTA, 5 mM DTT, 1 mM phenylmethylsulfonyl fluoride, Protease Inhibitor Cocktail (Sigma-Aldrich), and 1% (v/v) IGEPAL® CA-630 (Alfa Aesar) in a ratio of 2 mL/g tissue. Extracts were centrifuged at 4° C. and 4700 rpm for 30 minutes. Supernatants were directly incubated with RFP-Trap® Magnetic Agarose beads (ChromoTek®) overnight at 4° C. The beads were washed five times in buffer containing 50 mM Tris-HCl (pH 7.5), 150 mM NaCl, 10% (v/v) glycerol, 2 mM EDTA, Protease Inhibitor Cocktail (Sigma-Aldrich), and 0.5% (v/v) IGEPAL® CA-630 (Alfa Aesar) on ice. To release the proteins, 50 μL of SDS sample buffer (25 mM Tris-HCl, pH 6.8, 10% glycerol, 2% SDS, 0.2% 2-mercaptoethanol, 0.6 mg/mL Bromophenol blue) was added and samples were heated for 5 minutes at 95° C.
Proteins were separated on 12% SDS-polyacrylamide gels at 120 V for 3 h. Blotting to PVDF membranes (Merck) was done by wet transfer for 2 hours at 90 V. Membranes were blocked with 5% milk for 1 hour. […] Chemiluminescence was detected on a G-BOX (Syngene) using ECL Prime Western Blotting Detection Reagent (Cytiva).

T1 sequence (chain, as listed by the source limits assumed): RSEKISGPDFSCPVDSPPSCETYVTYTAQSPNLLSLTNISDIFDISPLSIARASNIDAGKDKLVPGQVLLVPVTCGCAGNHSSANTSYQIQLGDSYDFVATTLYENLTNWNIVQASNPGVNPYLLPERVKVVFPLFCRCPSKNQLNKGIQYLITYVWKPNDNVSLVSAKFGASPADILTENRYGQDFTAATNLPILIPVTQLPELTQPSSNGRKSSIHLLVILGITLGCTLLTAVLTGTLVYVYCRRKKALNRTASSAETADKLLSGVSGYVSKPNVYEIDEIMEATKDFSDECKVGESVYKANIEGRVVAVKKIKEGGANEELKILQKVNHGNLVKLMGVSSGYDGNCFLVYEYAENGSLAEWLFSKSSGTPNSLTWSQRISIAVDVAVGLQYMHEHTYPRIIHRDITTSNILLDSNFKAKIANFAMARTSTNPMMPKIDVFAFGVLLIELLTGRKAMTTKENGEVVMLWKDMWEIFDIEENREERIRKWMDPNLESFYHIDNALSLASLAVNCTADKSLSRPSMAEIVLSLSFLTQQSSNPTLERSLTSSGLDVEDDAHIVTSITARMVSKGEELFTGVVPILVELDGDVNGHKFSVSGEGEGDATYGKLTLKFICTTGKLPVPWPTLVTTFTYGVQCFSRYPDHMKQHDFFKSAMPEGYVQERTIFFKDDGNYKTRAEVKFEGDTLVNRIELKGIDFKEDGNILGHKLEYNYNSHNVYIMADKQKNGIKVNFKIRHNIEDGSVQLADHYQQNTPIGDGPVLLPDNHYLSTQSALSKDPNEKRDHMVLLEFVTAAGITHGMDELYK

B1: VHHLaG16m-tagged mCherry (mCherry_20linker_mutNbsfGFP-HA) (VHH)
VHH: QVQLVESGGRLVQAGDSLRLSCAASGRTWSTSAMAWFRQAPGREREFVAAITWWVGNTILGDSVKGRFTISRDRAKNTVDLQMDNLEPEDTAVYYCSARSRWYVLSVLRSVDSYDYWGQGTQVTVSS
notes: Construct EC32015, expressed in N. benthamiana leaves; LaG16 was engineered to carry three bulky tryptophan residues in the paratope; also called mCherry mutNb; mutated LaG16; not shown: mCherry red fluorescent protein (engineered); 20-residue linker ('20linker'); HA tag
B1: no binding.
